Experimental findings from patent US20250289894A1 (MORPHIC THERAPEUTIC, published 2025) are described below.

The target in experiment [1] is Human α7β1 (human) (UniProt Q13683). The experiment can be described thus: cell-based or functional assay.
The target is the same in experiment [2]. The experiment can be described thus: cell-based or functional assay. This is another data set of the same source.
For experiment [3], the target named is T1, Human a7b1 Ecto (X2B) (human, UniProt P05556 21-728).
T1 construct: extracellular domain
The experiment can be described thus: SPR.
Target sequence in this assay (P05556 21-728): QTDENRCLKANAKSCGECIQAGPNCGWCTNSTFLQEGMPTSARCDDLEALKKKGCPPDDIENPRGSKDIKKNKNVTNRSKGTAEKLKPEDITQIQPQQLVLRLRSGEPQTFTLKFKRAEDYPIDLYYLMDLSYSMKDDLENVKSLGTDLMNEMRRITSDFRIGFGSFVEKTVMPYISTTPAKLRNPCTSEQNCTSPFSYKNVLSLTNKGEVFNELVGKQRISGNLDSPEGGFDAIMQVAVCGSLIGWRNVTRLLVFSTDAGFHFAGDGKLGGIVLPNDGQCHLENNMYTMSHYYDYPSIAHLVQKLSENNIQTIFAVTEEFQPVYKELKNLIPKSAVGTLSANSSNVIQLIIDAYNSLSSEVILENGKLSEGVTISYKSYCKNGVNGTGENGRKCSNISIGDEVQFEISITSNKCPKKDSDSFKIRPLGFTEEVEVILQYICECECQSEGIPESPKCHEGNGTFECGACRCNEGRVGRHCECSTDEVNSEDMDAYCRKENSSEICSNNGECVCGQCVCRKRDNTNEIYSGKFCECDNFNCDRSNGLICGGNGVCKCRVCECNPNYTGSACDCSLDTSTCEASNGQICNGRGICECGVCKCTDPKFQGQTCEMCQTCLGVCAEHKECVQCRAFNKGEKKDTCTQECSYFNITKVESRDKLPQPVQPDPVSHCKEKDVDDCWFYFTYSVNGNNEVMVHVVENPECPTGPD

For experiment [4], the target named is T2, Human a7 Genu Calf 1-2 (human, UniProt Q13683 679-1078, limits assumed).
T2 construct: domain: Genu Calf 1-2
T2 sequence (looked up): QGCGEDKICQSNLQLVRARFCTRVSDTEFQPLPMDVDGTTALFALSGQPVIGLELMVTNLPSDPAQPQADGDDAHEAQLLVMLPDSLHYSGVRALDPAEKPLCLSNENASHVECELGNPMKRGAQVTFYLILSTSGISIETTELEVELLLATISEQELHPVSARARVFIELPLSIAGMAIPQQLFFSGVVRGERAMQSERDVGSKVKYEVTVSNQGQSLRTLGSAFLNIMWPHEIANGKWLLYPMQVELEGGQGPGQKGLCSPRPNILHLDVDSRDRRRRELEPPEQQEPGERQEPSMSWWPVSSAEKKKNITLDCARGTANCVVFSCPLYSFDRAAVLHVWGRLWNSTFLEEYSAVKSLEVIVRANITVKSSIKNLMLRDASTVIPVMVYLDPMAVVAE
The experiment can be described thus: SPR. Background: SPR reads the build-up and loss of mass on a sensor chip optically.

For experiment [5], the target named is T1, Human a7b1 Ecto (X2B). Description: SPR. This is another data set of the same source.
Experiment [6] deals with T2, Human a7 Genu Calf 1-2. The experiment can be described thus: SPR. This is another data set of the same source.
The target of experiment [7] is Human α7β1 (human), Q13683. The experiment can be described thus: cell-based or functional assay.

Where a chain is given by its changes, count along the chain named. Where two headings read alike, the source gives them in different places.

Take TS2/16 antibody: in the experiment with Human α7β1 (human) [1], the EC50 (nm), a7b1 activation assay stood at 1.97 nM; the EC50 (ug/mL), a7b1 activation assay came to 0.3 µg/mL; the Emax (F.C.), a7b1 activation assay was found to be 2.09 F.C. In the experiment with Human α7β1 (human) [2], the EC50 (nM), a7b1 activation assay is 2.07 nM; the EC50 (ug/mL), a7b1 activation assay was determined as 0.31 µg/mL; the Emax (% TS2/16), a7b1 activation assay was 100 % TS2/16; the Emax (F.C.), a7b1 activation assay worked out at 2.34 F.C.

For Isotype Control (antibody), in the experiment with Human α7β1 (human) [2], the EC50 (nM), ECIS, DMD-1 myoblast cells (control row) worked out at 38.1 nM; the EC50 (nM), ECIS, DMD-2 myoblast cells (control row) amounted to 8.7 nM; the EC50 (nM), ECIS, Non-DMD myoblast cells (control row) is 8.1 nM; the Emax (% of RefAb1), ECIS, DMD-1 myoblast cells (control row) was 59 % of RefAb1. In addition, in the experiment with Human α7β1 (human) [2], the Emax (% of RefAb1), ECIS, DMD-2 myoblast cells (control row) was 39 % of RefAb1 and the Emax (% of RefAb1), ECIS, Non-DMD myoblast cells (control row) is 35 % of RefAb1.

B1: Ab28 (antibody, human IgG1, lambda, L234A L235A)
heavy: EVQLVESGGGLVKPGGSLRLSCAASGFTFSSYTMNWVRQAPGKGLEWVSSISIVGNYIYYADSLKGRFTISRDNAKNSLYLQMNSLRAEDTAVYYCARRKWEHDAFDIWGQGTMVTVSSASTKGPSVFPLAPSSKSTSGGTAALGCLVKDYFPEPVTVSWNSGALTSGVHTFPAVLQSSGLYSLSSVVTVPSSSLGTQTYICNVNHKPSNTKVDKKVEPKSCDKTHTCPPCPAPEAAGGPSVFLFPPKPKDTLMISRTPEVTCVVVDVSHEDPEVKFNWYVDGVEVHNAKTKPREEQYNSTYRVVSVLTVLHQDWLNGKEYKCKVSNKALAAPIEKTISKAKGQPREPQVYTLPPSRDELTKNQVSLTCLVKGFYPSDIAVEWESNGQPENNYKTTPPVLDSDGSFFLYSKLTVDKSRWQQGNVFSCSVLHEALHSHYTQKSLSLSPG
light: SSELTQDPAVSVALGQTVRITCQGDSLRSYYASWYQQKPGQAPVLVIYGKNNRPSGIPDRFSGSSSGNTASLTITGAQAEDEADFYCTSRDNSGNHVVFGGGTKLTVLGQPKAAPSVTLFPPSSEELQANKATLVCLISDFYPGAVTVAWKADSSPVKAGVETTTPSKQSNNKYAASSYLSLTPEQWKSHKSYSCQVTHEGSTVEKTVAPTECS
In general, Kd refers to a measure of binding affinity in units of concentration. In the case of B1, the figures for the Kd with Human a7b1 Ecto (X2B) [3] and with Human a7 Genu Calf 1-2 [4] were 7.3 nM and 1.3 nM, respectively.

B2: Ab29 (antibody, human IgG1, lambda, L234A L235A)
heavy: B1 heavy with M254Y, S256T, T258E, L430M, S436N
light: B1 light
For the molecule B2, the Kd in the experiment with Human a7b1 Ecto (X2B) [3] turned out to be 8.9 nM; with Human a7 Genu Calf 1-2 [4], 3.6 nM.

B3: Ab24 (antibody, human IgG1, kappa, L234A L235A)
heavy: EVQLVQSGAEVKKPGSSVKVSCKASGYSFTRYWMHWVRQAPGQGLEWIGKIDPSDSETRLNQEFRDRATLTVDKSTSTAYMELSSLRSEDTAVYYCARGGYFGREWYYDVWGQGTLVTVSSASTKGPSVFPLAPSSKSTSGGTAALGCLVKDYFPEPVTVSWNSGALTSGVHTFPAVLQSSGLYSLSSVVTVPSSSLGTQTYICNVNHKPSNTKVDKKVEPKSCDKTHTCPPCPAPEAAGGPSVFLFPPKPKDTLMISRTPEVTCVVVDVSHEDPEVKFNWYVDGVEVHNAKTKPREEQYNSTYRVVSVLTVLHQDWLNGKEYKCKVSNKALAAPIEKTISKAKGQPREPQVYTLPPSRDELTKNQVSLTCLVKGFYPSDIAVEWESNGQPENNYKTTPPVLDSDGSFFLYSKLTVDKSRWQQGNVFSCSVLHEALHSHYTQKSLSLSPG
light: DIVMTQSPLSLPVTPGEPASISCRSSQSLVHRNGNTYLHWYLQKPGQSPQLLIYEVSNRAAGVPDRFSGSGSGTDFTLKISRVEAEDVGVYFCSQSTHVPWTFGGGTKLEIKRTVAAPSVFIFPPSDEQLKSGTASVVCLLNNFYPREAKVQWKVDNALQSGNSQESVTEQDSKDSTYSLSSTLTLSKADYEKHKVYACEVTHQGLSSPVTKSFNRGEC
B3: the Kd with Human a7b1 Ecto (X2B) [5] was 2.4 nM; with Human a7 Genu Calf 1-2 [6], 0.1 nM.

B4: Ab25 (antibody, human IgG1, kappa, L234A L235A)
heavy: B3 heavy with M256Y, S258T, T260E, L432M, S438N
light: B3 light
notes: same variable domains as Ab24
With B4, the Kd with Human a7b1 Ecto (X2B) [5] stood at 3.4 nM; in the experiment with Human a7 Genu Calf 1-2 [6], 0.3 nM.

B5: Ab26 (antibody, human IgG1, kappa, L234A L235A, V domains shown)
VH: EVQLVQSGAEVKKPGSSVKVSCKASGYSFTRYWMHWVRQAPGQGLEWIGKIDPSDSETRLNQEFRDRATLTVDKSTSTAYMELSSLRSEDTAVYYCARGGYFGEEWYHDVWGQGTLVTVSS
VL: DIVMTQSPLSLPVTPGEPASISCRSSQSLVHRNGNTYLHWYLQKPGQSPQLLIYEVSNRFTGVPDRFSGSGSGTDFTLKISRVEAEDVGVYFCAQSTQLPYTFGGGTKLEIKR
For B5, the figures for the Kd in the experiment with Human a7b1 Ecto (X2B) [5] and with Human a7 Genu Calf 1-2 [6] were 2.2 nM and 0.3 nM, respectively.

B6: Ab24/Ab25 (antibody, V domains shown)
VH: B5 VH with E104R, H108Y
VL: DIVMTQSPLSLPVTPGEPASISCRSSQSLVHRNGNTYLHWYLQKPGQSPQLLIYEVSNRAAGVPDRFSGSGSGTDFTLKISRVEAEDVGVYFCSQSTHVPWTFGGGTKLEIK
For B6, in experiment [7], the EC50 (nM), a7b1 activation assay was found to be 1.86 nM; the EC50 (ug/mL), a7b1 activation assay was found to be 0.28 µg/mL; the Emax (% TS2/16), a7b1 activation assay came to 97.9 % TS2/16; the Emax (F.C.), a7b1 activation assay (9EG7 staining, human iPSC cardiomyocytes) was 2.29 F.C.

B7: Ab26/Ab27 (antibody, V domains shown)
VH: B5 VH
VL: B6 VL with A60F, A61T, S94A, H98Q, V99L, W101Y
In experiment [7], B7 came in with an EC50 (nm), a7b1 activation assay of 2.88 nM; an EC50 (ug/mL), a7b1 activation assay of 0.43 µg/mL; an Emax (% TS2/16), a7b1 activation assay of 86.3 % TS2/16; an Emax (F.C.), a7b1 activation assay of 1.8 F.C.

B8: Ab32 (antibody, human IgG1, V domains shown)
VH: B5 VH with E105Q
VL: B6 VL with A61S
Molecule B8 registered a Kd with Human a7 Genu Calf 1-2 [6] of 1.53 nM.

B9: Ab30 (antibody, human IgG1, V domains shown)
VH: B5 VH with E105G
VL: B6 VL with N58K, A61S, S94A, T97I, H98Q
Take B9: the Kd is 3.99 nM with Human a7b1 Ecto (X2B) [5] and 0.57 nM with Human a7 Genu Calf 1-2 [6].

B10: Ab40 (antibody, human IgG1, V domains shown)
VH: B5 VH
VL: B6 VL with V56G, N58K, A60F, A61S
In the experiment with Human a7 Genu Calf 1-2 [6], B10 registered a Kd of 0.94 nM. This lies in the sub-nanomolar range.

B11: Ab33 (antibody, human IgG1, V domains shown)
VH: B5 VH with E104V, E105G, H108N
VL: B6 VL with A60V, A61P
As for B11, in the experiment with Human a7 Genu Calf 1-2 [6], binding was characterised by a dissociation constant (Kd) of 2.88 nM.

B12: Ab37 (antibody, human IgG1, V domains shown)
VH: B5 VH with E105K
VL: B6 VL with E55G, A60F, S94A, H98Q, V99L, W101Y
As to B12, the Kd in the experiment with Human a7 Genu Calf 1-2 [6] came to 1.43 nM. This Kd lies about 2-fold lower than the previous one.

B13: Ab42 (antibody, human IgG1, V domains shown)
VH: B5 VH with E104R, E105Q, H108F
VL: B6 VL with V56G, N58K, A60F, A61S, S94A, H98Q, V99L, W101Y
As to B13, binding with Human a7 Genu Calf 1-2 [6] was put at a Kd of 5.7 nM. This Kd is about 4-fold higher than that of the molecule before.

B14: AB-P (antibody, V domains shown)
VH: B5 VH with E1Q, E105G, H108F
VL: B6 VL with I2V, E55K, A60F, A61S
On to B14, for which the values for the Kd in the experiment with Human a7b1 Ecto (X2B) [5] and with Human a7 Genu Calf 1-2 [6] were 63.7 nM and 16.4 nM, respectively.

B15: Ab38 (antibody, human IgG1, V domains shown)
VH: B5 VH with H108N
VL: B6 VL with E55K, A61S
B15: in the experiment with Human a7 Genu Calf 1-2 [6], the Kd is 4.44 nM.

B16: Ab35 (antibody, human IgG1, V domains shown)
VH: B5 VH with E105N
VL: B6 VL with A60Y, A61S, S94A, T97I, H98Q
In the case of B16, the Kd amounted to 4.47 nM in the experiment with Human a7b1 Ecto (X2B) [5] and 0.54 nM in the experiment with Human a7 Genu Calf 1-2 [6].

B17: Ab31 (antibody, human IgG1, V domains shown)
VH: B5 VH with E104R, E105Q, H108F
VL: B6 VL with A61S
B17 displayed a Kd with Human a7 Genu Calf 1-2 [6] of 2.53 nM.

B18: Ab39 (antibody, human IgG1, V domains shown)
VH: B5 VH
VL: B6 VL with E55K, A61S
The molecule B18 gave a Kd with Human a7 Genu Calf 1-2 [6] of 1.57 nM.

B19: Ab36 (antibody, human IgG1, V domains shown)
VH: B5 VH with E105K
VL: B6 VL with N58H, A60F, A61P, S94A, H98Q, V99L, W101Y
The molecule B19 showed a Kd with Human a7 Genu Calf 1-2 [6] of 1.33 nM.

B20: Ab41 (antibody, human IgG1, V domains shown)
VH: B5 VH with E105Q
VL: B6 VL with N58K, A60F, A61S, S94A, T97I, H98Q
B20: the values for the Kd with Human a7b1 Ecto (X2B) [5] and with Human a7 Genu Calf 1-2 [6] were 3.88 nM and 0.71 nM, respectively.

B21: Ab34 (antibody, human IgG1, V domains shown)
VH: B5 VH with E105T
VL: B6 VL with N58H, A61S
As for B21, the affinity with Human a7 Genu Calf 1-2 [6], expressed as Kd, was 1.35 nM.
